According to publication PMC6220335, “Molecular structure of promoter-bound yeast TFIID” (Nature Communications, 2018):

Columns and labels:
Assay in all cases: cross-linking; 50 µg purified TFIID, 3 mM BS3, 2 h at 25 °C; trypsin, SCX fractionation, Orbitrap Fusion MS; pLink and Nexus, 5% FDR
Settings in all cases: both partners purified
[1] = molecular target: T1, Taf8, subunit of Komagataella phaffii TFIID (Komagataella phaffii, UniProt F2QT15 1-517)
T1 construct: Taf8, TFIID subunit of the yeast Komagataella phaffii (formerly Pichia pastoris); putative helices placed in the cryo-EM map; also called KpTaf8; source: endogenous, K. phaffii nuclear extract; co-purified in TFIID by SBP-tagged Taf2 (streptavidin beads, sucrose gradient)
T1 sequence (looked up): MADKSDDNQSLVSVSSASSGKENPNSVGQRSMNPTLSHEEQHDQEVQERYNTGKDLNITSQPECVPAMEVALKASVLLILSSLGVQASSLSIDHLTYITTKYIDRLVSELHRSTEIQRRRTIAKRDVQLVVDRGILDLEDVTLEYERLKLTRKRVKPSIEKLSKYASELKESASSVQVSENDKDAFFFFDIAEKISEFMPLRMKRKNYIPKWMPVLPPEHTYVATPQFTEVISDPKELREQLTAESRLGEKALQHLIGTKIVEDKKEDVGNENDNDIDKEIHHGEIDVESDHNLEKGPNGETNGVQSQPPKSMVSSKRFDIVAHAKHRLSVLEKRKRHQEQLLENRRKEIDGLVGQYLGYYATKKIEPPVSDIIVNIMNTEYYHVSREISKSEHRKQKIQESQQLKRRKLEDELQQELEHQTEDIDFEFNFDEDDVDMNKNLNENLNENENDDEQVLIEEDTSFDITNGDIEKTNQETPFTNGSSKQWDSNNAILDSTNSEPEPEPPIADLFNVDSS

[2] = molecular target: T2, Taf1 (TBP-associated factor 1), subunit of Komagataella phaffii TFIID (Komagataella phaffii, UniProt F2QMX2 1-1010)
T2 construct: Taf1, TFIID subunit of the yeast Komagataella phaffii (formerly Pichia pastoris); native subunit of the purified complex; also called KpTaf1; source: endogenous, K. phaffii nuclear extract; co-purified in TFIID by SBP-tagged Taf2 (streptavidin beads, sucrose gradient)
T2 sequence (looked up): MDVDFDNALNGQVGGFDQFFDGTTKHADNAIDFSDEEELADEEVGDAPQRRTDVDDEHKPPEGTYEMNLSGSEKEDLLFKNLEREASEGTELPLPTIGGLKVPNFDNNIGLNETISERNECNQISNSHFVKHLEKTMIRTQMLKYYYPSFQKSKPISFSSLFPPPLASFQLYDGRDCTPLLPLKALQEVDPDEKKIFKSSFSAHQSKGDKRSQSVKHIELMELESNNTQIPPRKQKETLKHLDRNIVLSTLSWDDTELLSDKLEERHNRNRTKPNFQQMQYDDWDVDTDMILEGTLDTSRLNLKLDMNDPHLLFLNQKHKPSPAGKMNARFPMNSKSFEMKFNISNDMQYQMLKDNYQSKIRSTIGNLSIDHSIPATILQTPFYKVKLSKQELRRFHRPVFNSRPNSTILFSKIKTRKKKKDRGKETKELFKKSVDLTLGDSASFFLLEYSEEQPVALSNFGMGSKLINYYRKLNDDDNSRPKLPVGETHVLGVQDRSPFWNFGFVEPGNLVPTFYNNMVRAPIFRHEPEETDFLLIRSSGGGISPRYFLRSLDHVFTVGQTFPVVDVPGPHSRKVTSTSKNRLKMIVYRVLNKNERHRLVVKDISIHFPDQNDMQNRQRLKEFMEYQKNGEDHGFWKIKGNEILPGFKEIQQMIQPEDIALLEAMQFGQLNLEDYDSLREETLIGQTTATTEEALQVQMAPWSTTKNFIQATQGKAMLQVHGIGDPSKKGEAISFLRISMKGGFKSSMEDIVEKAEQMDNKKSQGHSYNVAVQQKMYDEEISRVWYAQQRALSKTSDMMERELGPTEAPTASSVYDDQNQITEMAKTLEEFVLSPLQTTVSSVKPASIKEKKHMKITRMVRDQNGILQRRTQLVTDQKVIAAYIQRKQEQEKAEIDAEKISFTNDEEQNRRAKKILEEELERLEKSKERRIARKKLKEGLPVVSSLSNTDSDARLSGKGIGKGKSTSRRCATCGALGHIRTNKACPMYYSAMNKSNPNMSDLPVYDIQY

[3] = molecular target: T3, Taf2 with C-terminal streptavidin-binding peptide tag, subunit of Komagataella phaffii TFIID (Komagataella phaffii, UniProt F2QRH9 1-1571)
T3 construct: Taf2, TFIID subunit of the yeast Komagataella phaffii (formerly Pichia pastoris); residues 36 to 1194 modelled in the cryo-EM map; bait of the purification; also called SBP-tagged Taf2; source: K. phaffii strain with SBP-tagged Taf2, nuclear extract; purified (streptavidin beads, biotin elution, sucrose gradient)

[4] = molecular target: T4, Taf5, subunit of Komagataella phaffii TFIID (Komagataella phaffii, UniProt F2QWD3 1-722)
T4 construct: Taf5, TFIID subunit of the yeast Komagataella phaffii (formerly Pichia pastoris); WD40 repeat and NTD (residues 99–243) modelled in the cryo-EM map; two copies in holo-TFIID; source: endogenous, K. phaffii nuclear extract; co-purified in TFIID by SBP-tagged Taf2 (streptavidin beads, sucrose gradient)
T4 sequence (looked up): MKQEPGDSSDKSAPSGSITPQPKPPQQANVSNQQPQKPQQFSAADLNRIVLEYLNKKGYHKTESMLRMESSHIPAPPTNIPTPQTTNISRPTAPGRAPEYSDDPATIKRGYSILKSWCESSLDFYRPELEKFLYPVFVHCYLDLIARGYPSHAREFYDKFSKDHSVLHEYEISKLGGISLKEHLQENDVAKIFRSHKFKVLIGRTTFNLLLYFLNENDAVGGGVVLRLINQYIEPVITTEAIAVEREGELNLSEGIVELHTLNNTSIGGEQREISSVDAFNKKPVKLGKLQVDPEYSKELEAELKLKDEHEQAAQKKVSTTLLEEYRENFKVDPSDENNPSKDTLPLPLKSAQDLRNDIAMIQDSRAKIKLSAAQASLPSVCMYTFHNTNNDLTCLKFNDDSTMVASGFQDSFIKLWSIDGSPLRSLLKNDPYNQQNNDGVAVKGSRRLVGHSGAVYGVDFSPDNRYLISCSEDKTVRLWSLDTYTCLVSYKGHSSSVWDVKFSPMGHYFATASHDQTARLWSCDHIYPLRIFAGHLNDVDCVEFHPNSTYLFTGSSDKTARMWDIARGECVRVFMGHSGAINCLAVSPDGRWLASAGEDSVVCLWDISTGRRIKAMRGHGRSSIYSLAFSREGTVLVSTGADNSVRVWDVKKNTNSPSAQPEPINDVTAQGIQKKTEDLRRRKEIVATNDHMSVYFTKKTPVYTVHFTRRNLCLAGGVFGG

[5] = molecular target: T5, Taf11, subunit of Komagataella phaffii TFIID (Komagataella phaffii, UniProt F2QRB1 1-281)
T5 construct: Taf11, TFIID subunit of the yeast Komagataella phaffii (formerly Pichia pastoris); histone-fold domain modelled in the cryo-EM map; source: endogenous, K. phaffii nuclear extract; co-purified in TFIID by SBP-tagged Taf2 (streptavidin beads, sucrose gradient)
T5 sequence (looked up): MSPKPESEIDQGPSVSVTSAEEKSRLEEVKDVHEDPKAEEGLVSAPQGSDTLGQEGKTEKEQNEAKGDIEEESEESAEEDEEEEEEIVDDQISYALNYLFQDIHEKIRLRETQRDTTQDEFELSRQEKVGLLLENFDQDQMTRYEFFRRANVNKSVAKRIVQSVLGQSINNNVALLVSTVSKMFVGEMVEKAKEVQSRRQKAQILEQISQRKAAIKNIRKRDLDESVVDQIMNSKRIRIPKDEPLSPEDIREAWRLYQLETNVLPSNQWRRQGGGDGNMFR

B1: Taf10, subunit of Komagataella phaffii TFIID (natural protein, UniProt F2QLJ9 1-217, looked up)
chain: MSTEKLFEDLDEDSLMQDVEGGVEGSMTIEEEPEPNDEKEAPHISMPSLPEYTRKDKTLEEILEMMEDEEFTPIIPDAVTDYYLAKNGFETSDIKIKRILALATQKFISDIAQDAYEYSRIRSSSSVYTSANPQARARQLVAGQQQQQQQQPQQQQQQQPQTGASQPAPTVGGSGGGGGGGGGTSTGTNNKVVLTMDDLRSALGEYGINVKRPNFYR
notes: Taf10, TFIID subunit of the yeast Komagataella phaffii (formerly Pichia pastoris); source: endogenous, K. phaffii nuclear extract; co-purified in TFIID by SBP-tagged Taf2 (streptavidin beads, sucrose gradient)
[1]
  binding result: binds

B2: Taf7, subunit of Komagataella phaffii TFIID (natural protein, UniProt F2QXR8 1-460, looked up)
chain: MIKLKLHTDKKQNTVERRPKIKVKPPINKPESTVIPRIRVKPTRIAGDGYDSEDPDREDDPTTEEAIVMRIVPNDYSLEYVKKCVEQGDFSEISLQWKDKRRAVLRLKDRLYGAKLVDLPTMVEIHKTIDRKNIFKTMDVSQILLVIKELKYESEYLDIQLTASETFDDGLTPPLRGVKKRFDKRMTSKVFQIIEEQVDELFRLDEEAEASKYELVDTEAGTIPSFDADASTPNTKEFTVRGHLDVEDNEDLELELEQAFQQQSDTPLNPQQRSKGGRKTNDSDAHVRFYEQEEEDDEDEETFELKRVCSAEAKVEEGEEEAEEETEETEDDEDDDDEEVVGGKEIISGQRAGIDERLTHTQIIKEEIEELQATIGLKQSDFNKASNPIMKNRISDVIGRLKAELETKLRQVEMEQKEQQNNSNVTSHNIYQQRELDEDEDEDDDEDGDEDDDDDMEDLF
notes: Taf7, TFIID subunit of the yeast Komagataella phaffii (formerly Pichia pastoris); source: endogenous, K. phaffii nuclear extract; co-purified in TFIID by SBP-tagged Taf2 (streptavidin beads, sucrose gradient)
[2]
  binding result: binds
[3]
  binding result: binds

B3: Taf9, subunit of Komagataella phaffii TFIID (natural protein, UniProt F2QTW3 1-153, looked up)
chain: MTNEQAAIPRDVRLLHLIFATQNIYSYQDHVPLQLMDFAYRYTTGTLQDATIYSDHAHASGSHISNAGNAGTNAQLTTEDIRLAIAARTNYQFKPVPPKELLLELAAERNKKPLPAVIPTWGIRLPPEKYCLTGKDWVLEDEEEAVSYKKRKT
notes: Taf9, TFIID subunit of the yeast Komagataella phaffii (formerly Pichia pastoris); histone-fold domain modelled in the cryo-EM map; source: endogenous, K. phaffii nuclear extract; co-purified in TFIID by SBP-tagged Taf2 (streptavidin beads, sucrose gradient)
[4]
  binding result: binds
[5]
  binding result: binds
